# Assay results published in US20220332804A1 (CSL INNOVATION, published 2022).
# Substitutions are numbered along the chain they refer to.
# T1: human C2 A444S (human, UniProt P06681 21-752)
# T1 sequence: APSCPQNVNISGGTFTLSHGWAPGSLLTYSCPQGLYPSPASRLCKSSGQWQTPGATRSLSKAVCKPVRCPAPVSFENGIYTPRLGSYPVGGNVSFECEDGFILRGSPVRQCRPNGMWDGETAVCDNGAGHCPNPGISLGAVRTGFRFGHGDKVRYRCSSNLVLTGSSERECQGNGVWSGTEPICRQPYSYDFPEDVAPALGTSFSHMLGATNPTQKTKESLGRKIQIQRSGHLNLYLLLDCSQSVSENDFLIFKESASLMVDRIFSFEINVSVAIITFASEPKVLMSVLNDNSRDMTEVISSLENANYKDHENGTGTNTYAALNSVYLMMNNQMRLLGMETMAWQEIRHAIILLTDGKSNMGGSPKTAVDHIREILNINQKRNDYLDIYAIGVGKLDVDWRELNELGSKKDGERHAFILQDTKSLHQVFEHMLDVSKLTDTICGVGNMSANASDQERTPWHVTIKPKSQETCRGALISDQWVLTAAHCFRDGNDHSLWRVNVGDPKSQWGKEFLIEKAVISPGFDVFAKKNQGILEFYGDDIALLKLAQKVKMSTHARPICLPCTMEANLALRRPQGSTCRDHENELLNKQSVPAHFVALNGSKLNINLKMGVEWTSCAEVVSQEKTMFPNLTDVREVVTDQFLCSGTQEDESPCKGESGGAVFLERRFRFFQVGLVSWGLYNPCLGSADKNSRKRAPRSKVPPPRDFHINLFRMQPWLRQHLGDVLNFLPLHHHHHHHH
# T2: human C2 R688A (human, UniProt P06681 21-752)
# T2 sequence: T1 sequence with S424A, R668A
# T3: human C2 G677A (human, UniProt P06681 21-752)
# T3 sequence: T1 sequence with S424A, G657A
# T4: human C2 D404A (human, UniProt P06681 21-752)
# T4 sequence: T1 sequence with D384A, S424A
# B1: RF16-242 (antibody, human IgG4 S228P, lambda, V domains shown)
# VH: EVQLLQSGAEVKKPGESLKISCKGSGYSFTSYWIGWVRQMPGKGLEWMGIIYPGDSDTRYSPSFQGQVTISADKSISTAYLQWSSLKASDTAMYYCARRGHYGDYFDYWGQGTLVTVSS
# VL: SYELTQPPSVSVSPGQTARITCSGDALPKKYAYWYHQKSGQAPVLVIYEDRRRPSEIPERFSGSSSGTMATLTITGAQVEDEGVYFCYSRDRAGNQRVFGGGTQLTVLG
# notes: pH-dependent anti-C2 antibody from a phage display library
# Experiments:
# Experiment in all cases: SPR, antibody captured, C2 as analyte;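 also: biacore at 37 °C, anti-C2 mAbs held by immobilised goat anti-human IgG, C2 alanine or serine mutants injected, double-referenced sensorgrams fitted to a 1:1 kinetic or steady-state model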
# human C2 A444S = biological target: T1, human C2 A444S
# human C2 R688A = biological target: T2, human C2 R688A
# human C2 G677A = biological target: T3, human C2 G677A
# human C2 D404A = biological target: T4, human C2 D404A
binder,measurement,setting,value
B1,Kd,human C2 A444S,22.4 nM
same,Kd,human C2 R688A,17.3 nM
same,Kd,human C2 G677A,6.8 nM
same,Kd,human C2 D404A,16.4 nM
